Tested on: Bacillus subtilis
Assay: cleaved RNA product abundance (RNA/gDNA barcode ratio) relative to median wild-type variant (ratio to wild type); higher = more accumulation of the downstream cleavage product
Settings: cleavage site: cggR-gapA (positions -7 to +36 mutated)
Summary of the method: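 Oligos with a 9% error rate were used to build barcoded, mutagenized RNase Y cleavage-site windows within truncated aprE or tetM reporter mRNAs, which were integrated into the B. subtilis chromosome. Cultures were grown in LB at 37°C between OD600 0.0003 and 0.3. Cleaved RNA was gel-selected, reverse transcribed and barcode-sequenced, as were genomic DNA barcodes, and UMIs were collapsed. Cleaved product abundance is the scaled RNA:gDNA barcode ratio, with the median construct carrying the unmutated site as reference.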

[1] = experiment (reporter, strain, medium): exp 4a: truncated aprE reporter, strain BJT201 with 2% xylose (RNase J1 expressed)
[2] = experiment (reporter, strain, medium): exp 2b: truncated aprE reporter, strain BJT200

Row | Sequence | cleaved RNA product abundance [1] | cleaved RNA product abundance [2] | cleaved RNA product abundance (experiment (reporter, strain, medium): exp 6: tetM reporter, strain 168)
1 | ACAGACGAAGGAGCCGCAAAGAAGTTATTAAGCGATGAATAATCCCTCAATATAAATACCTCTCACTTATTTAAA | 0.118 | – | –
2 | ACAGACGAAGGAGCCGCAAAGAAGTTATTAAGCGATGAATAATCCCTCAATATAAATATCTCTCACTTATTTAAA | 0.116 | 0.0916 | 0.132
3 | ACAGACGAAGGAGCCGCAAAGAAGTTATTAAGCGATGAATAATCCCTCAATATAAATATTTCTCACTTATTTAAA | 0.171 | 0.0865 | –
4 | ACAGACGAAGGAGCCGCAAAGAAGTTATTAAGCGATGAATAATCCCTCAATATAGATATCTCTCACTTATTTAAA | 0.0736 | – | –
5 | ACAGACGAAGGAGCCGCAAAGAAGTTATTAAGCGATGAATAATCCCTCAATATTAATATCTCTCACTTATTTAAA | 0.151 | – | –
6 | ACAGACGAAGGAGCCGCAAAGAAGTTATTAAGCGATGAATAATCCCTCACTATAAATATCTCTCACTTATTTAAA | 0.0749 | 0.0669 | –
7 | ACAGACGAAGGAGCCGCAAAGAAGTTATTAAGCGATGAATAATCCCTCATAATAAATATCTCTCACTTATTTAAA | – | 0.165 | –
8 | ACAGACGAAGGAGCCGCAAAGAAGTTATTAAGCGATGAATAATCCCTCCATATAAATATCTCTCACTTATTTAAA | 0.0952 | – | –
9 | ACAGACGAAGGAGCCGCAAAGAAGTTATTAAGCGATGAATAATCCCTCTATATAAATATCTCTCACTTATTTAAA | 0.0811 | – | –
10 | ACAGACGAAGGAGCCGCAAAGAAGTTATTAAGCGATGAATAATCCCTGAATATAAATATCTCTCACTTATTTAAA | 0.072 | – | –
11 | ACAGACGAAGGAGCCGCAAAGAAGTTATTAAGCGATGAATAATCCCTTAATATAAATATCTCTCACTTATTTAAA | 0.301 | – | –
12 | ACAGACGAAGGAGCCGCAAAGAAGTTATTAAGCGATGAATAATCCGTCAATATAAATATCTCTCACTTATTTAAA | 0.139 | – | –
13 | ACAGACGAAGGAGCCGCAAAGAAGTTATTAAGCGATGAATAATCCTTCAATATAAATATCTCTCACTTATTTAAA | 0.119 | 0.0918 | –
14 | ACAGACGAAGGAGCCGCAAAGAAGTTATTAAGCGATGAATAATCGCTCAATATAAATATCTCTCACTTATTTAAA | 0.726 | 0.561 | –
15 | ACAGACGAAGGAGCCGCAAAGAAGTTATTAAGCGATGAATAATCTCTCAATATAAATATCTCTCACTTATTTAAA | 0.0997 | – | –
16 | ACAGACGAAGGAGCCGCAAAGAAGTTATTAAGCGATGAATAATGCCTCAATATAAATATCTCTCACTTATTTAAA | 0.112 | – | –
17 | ACAGACGAAGGAGCCGCAAAGAAGTTATTAAGCGATGAATAATTCCTCAATATAAATATCTCTCACTTATTTAAA | 0.096 | 0.0741 | –
18 | ACAGACGAAGGAGCCGCAAAGAAGTTATTAAGCGATGAATACTCCCTCAATATAAATATCTCTCACTTATTTAAA | 0.102 | – | –
19 | ACAGACGAAGGAGCCGCAAAGAAGTTATTAAGCGATGAATTATCCCTCAATATAAATATCTCTCACTTATTTAAA | 0.101 | 0.101 | –
20 | ACAGACGAAGGAGCCGCAAAGAAGTTATTAAGCGATGACTAATCCCTCAATATAAATATCTCTCACTTATTTAAA | 0.0948 | – | –
21 | ACAGACGAAGGAGCCGCAAAGAAGTTATTAAGCGATGCATAATCCCTCAATATAAATATCTCTCACTTATTTAAA | 0.125 | – | –
22 | ACAGACGAAGGAGCCGCAAAGAAGTTATTAAGCGATGTATAATCCCTCAATATAAATATCTCTCACTTATTTAAA | 0.08 | – | –
23 | ACAGACGAAGGAGCCGCAAAGAAGTTATTAAGCGATTAATAATCCCTCAACATAAATATCTCTCACTTATTTAAA | 0.0653 | – | –
24 | ACAGACGAAGGAGCCGCAAAGAAGTTATTAAGCGATTAATAATCCCTCAATATAAATATCTCTCACTTATTTAAA | 0.0983 | 0.0842 | –
25 | ACAGACGAAGGAGCCGCAAAGAAGTTATTAAGCGATTAATAATTCCTCAATATAAATATCTCTCACTTATTTAAA | 0.0664 | – | –
26 | ACAGACGAAGGAGCCGCAAAGAAGTTATTAAGCGCTGAATAATCCCTCAATATAAATATCTCTCACTTATTTAAA | 0.0581 | 0.0756 | –

Row | Sequence | cleaved RNA product abundance [1] | cleaved RNA product abundance [2] | cleaved RNA product abundance (experiment (reporter, strain, medium): exp 6: tetM reporter, strain 168)
27 | ACAGACGAAGGAGCCGCAAAGAAGTTATTAAGCTATGAATAATCCCTCAATATAAATATCTCTCACTTATTTAAA | 0.104 | 0.0874 | –
28 | ACAGACGAAGGAGCCGCAAAGAAGTTATTAAGGAAAGAATAATCCCTCAATATAAATATCTCTCACTTATTTAAA | 0.0978 | – | –
29 | ACAGACGAAGGAGCCGCAAAGAAGTTATTAAGGAACGAATAATCCCTCAATATAAATATCTCTCACTTATTTAAA | 0.073 | 0.0842 | –
30 | ACAGACGAAGGAGCCGCAAAGAAGTTATTAAGGAAGGAATAATCCCTCAATATAAATATCTCTCACTTATTTAAA | 0.233 | – | –
31 | ACAGACGAAGGAGCCGCAAAGAAGTTATTAAGGAATAAATAATCCCTCAATACAAATATCTCTCACTTATTTAAA | 0.0573 | – | –
32 | ACAGACGAAGGAGCCGCAAAGAAGTTATTAAGGAATAAATAATCCCTCAATATAAATATCTCTCACTTATTTAAA | 0.0868 | 0.0901 | –
33 | ACAGACGAAGGAGCCGCAAAGAAGTTATTAAGGAATCAATAATCCCTCAATATAAATATCTCTCACTTATTTAAA | 0.109 | 0.0834 | –
34 | ACAGACGAAGGAGCCGCAAAGAAGTTATTAAGGAATGAAAAATCCCTCAATATAAATATCTCTCACTTATTTAAA | 0.137 | 0.0892 | –
35 | ACAGACGAAGGAGCCGCAAAGAAGTTATTAAGGAATGAACAATCCCTCAATATAAATATCTCTCACTTATTTAAA | 0.124 | 0.0794 | –
36 | ACAGACGAAGGAGCCGCAAAGAAGTTATTAAGGAATGAAGAATCCCTCAATATAAATATCTCTCACTTATTTAAA | 0.17 | 0.0952 | –
37 | ACAGACGAAGGAGCCGCAAAGAAGTTATTAAGGAATGAATAAACCCTCAATATAAATATCTCTCACTTATTTAAA | 0.11 | 0.0981 | –
38 | ACAGACGAAGGAGCCGCAAAGAAGTTATTAAGGAATGAATAACCCCTCAATATAAATATCTCTCACTTATTTAAA | 0.101 | – | –
39 | ACAGACGAAGGAGCCGCAAAGAAGTTATTAAGGAATGAATAATACCTCAATATAAATATCTCTCACTTATTTAAA | 0.124 | 0.121 | –
40 | ACAGACGAAGGAGCCGCAAAGAAGTTATTAAGGAATGAATAATCACTCAATATAAATATCTCTCACTTATTTAAA | 0.124 | 0.111 | –
41 | ACAGACGAAGGAGCCGCAAAGAAGTTATTAAGGAATGAATAATCCATCAATATAAATATCTCTCACTTATTTAAA | 0.124 | 0.0915 | –
42 | ACAGACGAAGGAGCCGCAAAGAAGTTATTAAGGAATGAATAATCCCACAATATAAATATCTCTCACTTATTTAAA | 0.0935 | – | –
43 | ACAGACGAAGGAGCCGCAAAGAAGTTATTAAGGAATGAATAATCCCCCAATATAAATATCTCTCACTTATTTAAA | 0.115 | 0.122 | –
44 | ACAGACGAAGGAGCCGCAAAGAAGTTATTAAGGAATGAATAATCCCGCAATATAAATATCTCTCACTTATTTAAA | 0.0576 | – | –
45 | ACAGACGAAGGAGCCGCAAAGAAGTTATTAAGGAATGAATAATCCCTAAATATAAATATCTCTCACTTATTTAAA | 0.147 | 0.152 | –
46 | ACAGACGAAGGAGCCGCAAAGAAGTTATTAAGGAATGAATAATCCCTCAAAATAAATATCTCTCACTTATTTAAA | 0.122 | 0.0937 | –
47 | ACAGACGAAGGAGCCGCAAAGAAGTTATTAAGGAATGAATAATCCCTCAACATAAATATCTCTCACTTATTTAAA | 0.0941 | – | –
48 | ACAGACGAAGGAGCCGCAAAGAAGTTATTAAGGAATGAATAATCCCTCAAGATAAATATCTCTCACTTATTTAAA | 0.0834 | – | –
49 | ACAGACGAAGGAGCCGCAAAGAAGTTATTAAGGAATGAATAATCCCTCAATAAAAATATCTCTCACTTATTTAAA | 0.0766 | 0.0974 | –
50 | ACAGACGAAGGAGCCGCAAAGAAGTTATTAAGGAATGAATAATCCCTCAATATAAAAAACTCTCACTTATTTAAA | 0.0884 | – | –
51 | ACAGACGAAGGAGCCGCAAAGAAGTTATTAAGGAATGAATAATCCCTCAATATAAAAATCTCTCACTTATTTAAA | 0.161 | 0.127 | –
52 | ACAGACGAAGGAGCCGCAAAGAAGTTATTAAGGAATGAATAATCCCTCAATATAAACATCTCTCACTTATTTAAA | 0.121 | – | –

Source: the supplement of paper PMC11780869
